{"source": "patent EP4703474A1", "about": "“ANTI-LRRC15 ANTIBODY” (priority 2023, dated 2024)", "molecules": {"B1": {"name": "H02L01-V1-PBD (conjugate)", "heavy": "EVQLVESGGGLVQPGGSLRLSCAASGFTFRDYYMAWVRQAPGKGLEWVSSIGFDESRTYYADSVKGRFTISRDDSKNTLYLQMNSLRAEDTAVYYCARHGVSKYSGDNWFAYWGQGTLVTVSSASTKGPSVFPLAPSSKSTSGGTAALGCLVKDYFPEPVTVSWNSGALTSGVHTFPAVLQSSGLYSLSSVVTVPSSSLGTQTYICNVNHKPSNTKVDKKVEPKSCDKTHTCPPCPAPEAAGGPSVFLFPPKPKDTLMISRTPEVTCVVVDVSHEDPEVKFNWYVDGVEVHNAKTKPREEQYNSTYRVVSVLTVLHQDWLNGKEYKCKVSNKALAAPIEKTISKAKGQPREPQVYTLPPSREEMTKNQVSLTCLVKGFYPSDIAVEWESNGQPENNYKTTPPVLDSDGSFFLYSKLTVDKSRWQQGNVFSCSVMHEALHNHYTQKSLSLSPGK", "light": "DIQMTQSPSSLSASVGDRVTITCKSSQGLLYSGDQKNYLAWYQQKPGKAPKLLIYWASTRQSGVPSRFSGSGSGTDFTLTISSLQPEDFATYYCQQYYDPPYTFGQGTKVEIKRTVAAPSVFIFPPSDEQLKSGTASVVCLLNNFYPREAKVQWKVDNALQSGNSQESVTEQDSKDSTYSLSSTLTLSKADYEKHKVYACEVTHQGLSSPVTKSFNRGEC"}}, "key": {"[1]": {"system": "Pancreatic carcinoma cell line BxPC-3 and human adipose tissue-derived mesenchymal stem cells", "assay": "In vivo antitumor effect, BxPC-3 co-transplanted with mesenchymal stem cells", "settings": "BxPC-3 and MSC at 1:3; 0.4 mg/kg, tail vein, on Day 27; female SCID mice", "experimental": "(§1) The antitumor effects of the antibody-drug conjugates were evaluated by using animal models in which cells of a human tumor cell line had been transplanted into immunodeficient mice, or cells of a mouse tumor cell line had been transplanted into immunocompetent mice. 4 to 6 Week-old SCID mice (CB17/Icr-Prkdc[scid]/CrlCrlj, Jackson Laboratory Japan, Inc.), NSG mice (NOD.Cg-Prkdcscid Il2rgtm1Wjl/SzJ, Jackson Laboratory Japan, Inc.), or B6J mice (C57BL/6J, Jackson Laboratory Japan, Inc.) were habituated for 3 days or more under SPF conditions before experimental use. The mice were fed with sterilized solid feed and given sterilized tap water. The major and minor diameters of the transplanted tumors were measured twice a week with an electronic digital caliper (Mitutoyo Corporation), and the estimated tumor volume was calculated using the following formula. Estimated tumor volume (mm^3) = 1/2 × major diameter (mm) × [minor diameter (mm)]^2 All antibody-drug conjugates were diluted with ABS and administered into the tail vein at doses shown in each Example. In addition, ABS (vehicle) or control hIgG-PBD prepared in Reference Example 4 was administered as the control group, in a similar manner. 5 to 6 Mice were used per group in the experiment. To analyze the LRRC15 expression in mouse tumor models, immunohistochemical staining of LRRC15 was performed. […]"}, "[2]": {"system": "Gastric carcinoma cell line NCI-N87", "assay": "In vivo antitumor effect, NCI-N87 subcutaneous transplant model", "settings": "0.4 mg/kg, tail vein, on Day 10, female SCID mice", "experimental": "as §1"}}, "data": [{"molecule": "B1", "values": [{"measurement": "antitumor effect (estimated tumor volume)", "setting": "[1]", "value": "antitumor activity higher than that of the vehicle and control hIgG-PBD"}, {"measurement": "antitumor effect (estimated tumor volume)", "setting": "[2]", "value": "antitumor activity higher than that of the vehicle"}]}]}
